From the DeepSol protein solubility set come the findings set out here.

This data set in a line: soluble on expression in E. coli; label from the status in PepcDB or PDB records.
In the case of “GSHMSLDNKPIMRVASIDIGSYSVRLTIAQIKDGKLSIILERGRITSLGTKVKETGRLQEDRIEETIQVLKEYKKLIDEFKVERVKAVATEAIRRAKNAEEFLERVKREVGLVVEVITPEQEGRYAYLAVAYSLKPEGEVCVVDQGGGSTEYVFGKGYKVREVISLPIGIVNLTETFFKQDPPTEEEVKRFFEFLEKELSKVKKPVDTIVGLGGTITTLAALEYNVYPYDPQKVHGKVLTYGQIKKWFDTFKEIPSEERSKRFRQVEDRRAKVILAGIGIFLKTLEIFEKDCLIVSDWGLREGVLVSEVLKENHS”, the “soluble on expression in E. coli” value was “soluble”.
For “SPRPPDDPGFGPHQRLEKLDSLLSDYDILSLSNIQQHSVRKRDLQTSTHVETLLTFSALKRHFKLYLTSSTERFSQNFKVVVVDGKNESEYTVKWQDFFTGHVVGEPDSRVLAHIRDDDVIIRINTDGAEYNIEPLWRFVNDTKDKRMLVYKSEDIKNVSRLQSPKVCGYLKVDNEELLPKGLVDREPPEGKT” the value was “soluble”; for “MSLRILAIDTATEACSVALWNNGTINAHFELCPREHTQRILPMVQEILAASGASLNEIDALAFGRGPGSFTGVRIGIGIAQGLALGANLPMIGVSTLATMAQGAWRKTGATRVLAAIDARMGEVYWAEYQRDAQGVWQGEETEAVLKPERVGERLKQLSGEWATVGTGWSAWPDLAKECGLTLHDGEVSLPAAEDMLPIASQKLAAGETVAVEHAEPVYLRNEVAWKKLPGKEEGHHHHHH”, “soluble”.
In the case of “GMDKYLSANSLEGVIDNEFSMPAPRWLNTYPAGPYRFINREFFIIAYETDPDLLQAILPPDMELLEPVVKFEFIRMPDSTGFGDYTESGQVVPVRYKGEEGGFTISMFLDCHAPIAGGREIWGFPKKLAKPKLFVEEDTLIGILKYGSIDIAIATMGYKHRPLDAEKVLESVKKPVFLLKNIPNVDGTPLVNQLTKTYLTDITVKGAWTGPGSLELHPHALAPISNLYIKKIVSVSHFITDLTLPYGKVVADYLA”, the “soluble on expression in E. coli” value is recorded as “soluble”.
For “MPDPQISAIICTHNRDTYLGAAIDSLLVQDFAGEFEVVVIDNGSSDRTREVVEQRSSDSRLKYVFEPTIGLSVARNTGAKFASAEILAYLDDDAVASTHWLQVLYAAYQNYPQLAIAGGKVTLLWPPDTQPPRWLSSGLAGNLGAYDLGDKVVYIQQPGLTPRGLNYSIRRTFLEEIGGFDPHLGRVGKNLLSNEELQMTELALTGGWQVAYLPEALVAHNVAPERLNRSWFLNRGWWQGISECYREQLSGKAGVGQLSRGGERLARGLYKAFRYFSNPAERFDNLVYAYGQIGYLNAVLQGLLFTANNKGSQLEHHHHHH” the value was “soluble”.
For “MDSTMTNYMGQENLPPALKLINDKSYQYSTHKHNIETSNDGTLHSYTIVLSREPLESPTSYNKYQKNVEPVQKENQKPKDLNKMTAGPHIAVKNSSGLVSQISSTTSSERKRRTLARPSSSSESDLKVGNIQQSNQYFTLPSVMKPSALSTEDPKKVIVQSNTSSSSMSDASSKKSLPTYTYLSGHTTGSARYVTMVNVKFLLLHCDVLQRRAQSMFTDEFPSDCRLEEVVINFHQLCCRQLLDQNFNPRLSYCIGELNYSDSKPVSANDMSKTLAQLATTQSIAQLSIIVDVTEKNMKLK”, the “soluble on expression in E. coli” value is recorded as “not soluble”.
For “FPSGSAQLSARLYLPAGTPQVAVVINGATGVPREYYQHFATWLAAERGIACLTYDYRDFGHSLRGPLAASTATMSDWALIDMPAAYAEMQRRYPDLPLWVIGHSVGGMLGPLQPGIEPIARMICVCSGLVHHSDHPWPYQALARLFWFGHAPLLVKTLGYLPGRRIGFGSDLPPGVYWEWRRWCTTPGAYLPEMGDRLPQADWSRSGAPVDMFAFEDDTTIPPNCVWRLADVYGETVRRHLLHPRAFGLREIGHLGAFARRNAALWPRLIA” the value was “not soluble”.
Take “MATPDVSVHMEEVVVVTTPDTAVDGSGVEGVKTVLVTTNLAPHGGDLTEDNMETENAAAAAAAAFTASSQLKEAVLVKMAEEGENLEAEIVYPITCGDSRANLIWRKFVCPGINVKCVQYDEHVISPKEFVHLAGKSTLKDWKRAIRMNGIMLRKIMDSGELDFYQHDKVCSNTCRSTKIDLSGARVSLSSPTSAEYIPLTPAAADVNGSPATITIETCEDPGDWTAAIGDDTFTFWRGLKDAGLLDEVIQEFHQELVETMRGLQQRVQDPPLQLRDAVLLNNIVQNFGMLDLVKKVLASHKCQMDRSREQYARDLAALEQQCDEHRRRAKELKHKSQHLSNVLMTLTPVSLPPPVKRPRLARATSGPAAMASQVLTQSAQLALGPGVPVPQLTSVPLGKVVSTLPSTVLGKGSLQAPPASSPASPLLGGYTVLASSGSTYPSTVEIHPDASSLTVLSTAAVQDGSTVFKVVSPLQLLTLPGLGPTLQNVAQASPGSSTIVTVPAGAAPGPEEHTATIEVAAMAEDHERK”: the “soluble on expression in E. coli” value is listed as “not soluble”.
Take “MGSDKIHHHHHHMLESYITVKQDGFSEIEIKKSRFICSVKRVTSEEEAKAFIAAIKKEHWKANHNCSAFVIGEKNDIQRSSDDGEPSGTAGVPMLEVLKKKELINVVAVVTRYFGGIKLGTGGLIRAYSHALSHTLDEIGLVIGKLQQELLITIAYPLLGKAQAFLEHSPYTLKETIYTESIQLICLVDEQATETFIAEMTDLLNGQLTIEKGATSYHELPFNEKGAQANDI”: the “soluble on expression in E. coli” value is recorded as “not soluble”.
Consider “MAVAPTAREENVYMAKLAEQAERYEEMVEFMEKVSNSLGSEELTVEERNLLSVAYKNVIGARRASWRIISSIEQKEESRGNEEHVNSIREYRSKIENELSKICDGILKLLDAKLIPSAASGDSKVFYLKMKGDYHRYLAEFKTGAERKEAAESTLTAYKAAQDIATTELAPTHPIRLGLALNFSVFYYEILNSPDRACNLAKQAFDEAIAELDTLGEESYKDSTLIMQLLRDNLTLWTSDMQDDGADEIKEDPKPDEAKN”, for which the “soluble on expression in E. coli” value is on record as “soluble”.
Turning to “TNAVNIVMRQPTTPNFSSALNITSANEGGSAMQIRGVEKALGTLKITHENPSVDKEYDENAAALSIDIVKKQKGGKGTAAQGIYINSTSGTAGKMLRIRNKNKDKFYVGPDGDFWSCASSIVDGNLTVKDPTSGKHAATKDYVDEKIAELKKLILKK”, the “soluble on expression in E. coli” value was “soluble”.
For “MAHHHHHHMSSQAQQRAPAYAPRDTHAERLAAADREAAARRDSSTNWTWYPEYHLAPYMGWMNDPTGLVHFRDHYHVFYQYHPYSAEWGPMHWGHMTSEDLVHWQHEKVALAPGDACDRNGCFSGTAVVHEDRMYVFYTGHFALDAATPSNPDAIFEQQCVAVSSDGVNFEKLGAVVRPPPGYVHFRDPKVWQQDGRWWMVCGARDVTKDLGQLLLFTTEDLLKWDDTNWQVLGMTEDKNVFMWECPDYFTIGSREDMKLLLFCPQGKKASEYNYRNRFQNGYTVGQWMPGGPWTVQREFRELDRGHDFYAAQTFLAADGQRRMLMAWCNMWESPMPTKQYGWSGCLTLPRELSYNEATGQLCMLPARELVGLRTPEMMIVPSLLVENNSDAQILENCTAYELDIAFNMETSTAEKYGLWLGSGAELYVDAQSKRLVLNRHYPQHMLSGYRSCELPIGLLLQLHVFIDRSSIEVFVNNGEATFSSRVFPDEGDRALRVFSVNGTADMVGGTMWKLKATVRH”, the “soluble on expression in E. coli” value is given as “not soluble”.
On to “MSDEWEQLTVELRKIPRGTEAAPQYLRHLMKMFVADFETAVSKRFDVKFWNKLKSMMDEITKAMENDRLVNHNVQNLAIGFLTDLSLLVHYHYEIPNYGNDISKQLTWTPDVFLNRKPIKSKKNSRVFMAYVLLRMGDLMRYKENYPKAQEYYEQSCRINPADGAVWNQLGLISSLGAKNLESVYFHTRALHATMEFPTASGGLTNIFKNFANRDISRPMPIKDLYLSCLGRIHFLLEIEDSSVHLQKIGEEAATSKEMIVPLMSVYKHLEDGTELEQRAVEYVKTIWCTAYRSLLKTLDDYKEESKKLADVPHLLHILALLLCAPKLLRGIEDQTEDEVTSICEWLLCANCDEKIKDSDAFGYFHCLQRIQYPLTRTQLAQKLVEIEDEDESKDSDQSTIPEEDQKSLSTDTSRIQNEDSEPESESESSDEEVLQRGRRRGRNPNLDESVETDEDEF”, for which the “soluble on expression in E. coli” value is on record as “not soluble”.
On to “MAHHHHHHMALTQSSGEPLRSMQGGVGGVSYADGAGQAPEHINRASATPVLTEEAVQSSIETFEDAACVREEAVRSYAEFHNNVESLHATMHTQLRPVWRTAMQLRPEILSDVRDEWCLRRRDNIPDGIPIPAAAAQHIALQETILSEVEDMLQVLRNTSVRFAAHFLSDEEKISMGANPAYLRAPDIDKEVVVSRSQSTSTSPQRALPASVMSVSSSAGAVASAPIKPSASSAATAAVHTPREGHSRHHQGSYVQHHHHHSDDEAGLVSSSSNRHVCSGKSSCGSRSAGEDPLLEELRKQYQLRIRELKAQSEAGASRRSEHGASQSAAAPPPRRGNRARVAASRSLSLPSWASSASASVLTSSSSTVSRR”, for which the “soluble on expression in E. coli” value is recorded as “soluble”.
For “MAHHHHHHMQLSRYSPPPSSSSSSLLSTVMQAKDVVTRLGPSERFPGLCGVFLTKPIKKFHPIEVLPTAASAAATTTTAATADSSAERPDASRSPTSAIVSQAPPFVLNLAFAPRHSISLRRFLALRHMFSTSAYLHVATEDGWYLVAPSSAAPLCPDVTGLQAWCCRHHHRYLKHAATAVTAATSSSTPSSRAPRCSTHTGIAKLEAALDNGEELSEEQLQRLAAQEKAFFAHTPENEEADIDDDTDETDDMPAVREPRHPLSQKTAAPTAETLRKRSAGAPASAFGLSPPLIPEAHLFDINDGVAWLLPPSDDLANHEYWKSHRQRMALYESTGDADAAEQREALLATLRADPAIAQHLSSEQELYAAAEALFQALKHKANVTLNVDADTGLLTLVPLRDLHAGEELLLHYGREWWTGRLLFSLLLSVSDAEMPQIRWIEQLFDHAVDRSEPFPLLIVAHEQRKRPRRGCSGGAKVRKGLKNESSGDGDEQQQQSTQCASLTKPHGDSAETSSTTAMTAELPVSQRKLGRAVLYNTVTHKRATDAAVLAFAVRRSCIEPCFLSRLLAGDAAGGVEPVFYLSEPDKEVPMRVLRRVLLASLRGTTASAQRSIPHKDESASVVAGSAVADTAAAVVDQGAPPQTSTNTGGDGDDGDDAVFSV”, the “soluble on expression in E. coli” value is recorded as “soluble”.
“MGSSHHHHHHSSGLVPRGSHMSVRSLPAALRACARLQPHDPAFTFMDYEQDWDGVAITLTWSQLYRRTLNVAQELSRCGSTGDRVVISAPQGLEYVVAFLGALQAGRIAVPLSVPQGGVTDERSDSVLSDSSPVAILTTSSAVDDVVQHVARRPGESPPSIIEVDLLDLDAPNGYTFKEDEYPSTAYLQYTSGSTRTPAGVVMSHQNVRVNFEQLMSGYFADTDGIPPPNSALVSWLPFYHDMGLVIGICAPILGGYPAVLTSPVSFLQRPARWMHLMASDFHAFSAAPNFAFELAARRTTDDDMAGRDLGNILTILSGSERVQAATIKRFADRFARFNLQERVIRPSYGLAEATVYVATSKPGQPPETVDFDTESLSAGHAKPCAGGGATSLISYMLPRSPIVRIVDSDTCIECPDGTVGEIWVHGDNVANGYWQKPDESERTFGGKIVTPSPGTPEGPWLRTGDSGFVTDGKMFIIGR”: the “soluble on expression in E. coli” value is “soluble”.
As for “MGSDKIHHHHHHMTDFSQLPNAAGVGYKPQHFQNIIDGSGAVDWLEIHAENYMGDGGRPLAQLRHLAERFPISVHGVGLSIGGEGPLDPEHLARLKHLVDWLKPASFSEHLAWSTHDTHFYNDLLPLPYTDATLARICDHIDMVQTLLGRRMLLENPSSYLAFAESTWEEPAFLHEIAKRTGCGLLLDVNNVFVSATNLGYRPQDYIDAYPLDLVGEIHLGGHDEDEDDHGRPLLIDSHGAEVVDPVWSLLSYTLTRSGPKPTLVEWDTDVPEWSVLEAEAARAANALRTAKVAA”, the “soluble on expression in E. coli” value is “not soluble”.
For “MAVSDNTFSMSTMFNALPNPTETSGYIPPSGFAPRASATPLHAALFNLMTDGDGVSYFKEMISKSDKTELQRMASLLTSDSDYFMSIVTTKFGSRRVQKLLGKSDDVDAFFCAAILRRFLHITTDKYASYVTIRAMVVFDKVMKKALYERILYHALDLACDQHGCIALNDIITDADDPYYRDQLLELVVSNALRLSNDASGNFVVQHVLTLYDSRCIHNIAVNLYGQCIELSFKKYGSYIVEKLLEVEESMVVVVVELLGCDGDRLMRLARNEFGNFVVVKALRFTKEMRMDLFWGLVQKLMPFIHLLRRSHGNNIANILDTFRLRC” the value was “soluble”.
